As a reminder, the Kd is the concentration at which binding is half-saturated. A higher Kd goes with a looser complex.

This is an account of results in article PMC4843017 (2016).

Assay [1] has as its target T1, taxol-stabilized microtubules (α-/β-tubulin) (bovine, UniProt P81947 1-451; Q6B856 1-445).
Assay [2] deals with T1, taxol-stabilized microtubules …. This is another data set of the same source.

Where two headings read alike, the source gives them in different places.

T1 sequence (P81947 whole entry, chain 1 of 2): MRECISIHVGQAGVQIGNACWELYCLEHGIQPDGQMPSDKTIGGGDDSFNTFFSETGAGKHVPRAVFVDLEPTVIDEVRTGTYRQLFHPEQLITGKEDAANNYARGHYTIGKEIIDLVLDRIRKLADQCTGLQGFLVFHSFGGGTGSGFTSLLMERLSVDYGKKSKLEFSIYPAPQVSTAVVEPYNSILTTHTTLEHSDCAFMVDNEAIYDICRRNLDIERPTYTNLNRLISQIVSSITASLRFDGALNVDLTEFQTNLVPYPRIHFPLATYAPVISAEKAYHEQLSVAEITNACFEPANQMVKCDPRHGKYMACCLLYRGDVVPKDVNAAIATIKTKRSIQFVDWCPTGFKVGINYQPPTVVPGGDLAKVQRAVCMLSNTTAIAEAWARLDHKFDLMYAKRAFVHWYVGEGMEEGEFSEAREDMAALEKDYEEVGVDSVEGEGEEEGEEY
T1 sequence (Q6B856 whole entry, chain 2 of 2): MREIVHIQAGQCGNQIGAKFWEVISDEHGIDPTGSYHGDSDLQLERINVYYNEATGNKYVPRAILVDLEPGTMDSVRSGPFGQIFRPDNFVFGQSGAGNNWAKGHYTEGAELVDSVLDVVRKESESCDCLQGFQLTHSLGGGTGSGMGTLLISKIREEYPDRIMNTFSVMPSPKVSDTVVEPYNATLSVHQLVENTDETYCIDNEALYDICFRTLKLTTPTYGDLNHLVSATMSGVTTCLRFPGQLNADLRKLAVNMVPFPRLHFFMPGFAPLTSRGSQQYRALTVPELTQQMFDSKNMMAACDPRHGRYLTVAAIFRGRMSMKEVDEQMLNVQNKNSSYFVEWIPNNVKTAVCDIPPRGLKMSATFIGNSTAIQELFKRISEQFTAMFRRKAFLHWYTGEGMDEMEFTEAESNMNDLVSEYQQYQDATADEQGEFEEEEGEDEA

B1: SKAP^103–225 (domain or fragment)
chain: TQTRATSKSLLPVRSKEVDVSKQLHSGGPENDVTKITKLRRENGQMKATDTATRRNVRKGYKPLSKQKSEEELKDKNQLLEAVNKQLHQKLTETQGELKDLTQKVELLEKFRDNCLAILESKG
Take B1: the Kd in assay [1] turned out to be 1.1 µM.

B2: SKAP^159–316 (expressed alone in E. coli) (domain or fragment)
chain: VRKGYKPLSKQKSEEELKDKNQLLEAVNKQLHQKLTETQGELKDLTQKVELLEKFRDNCLAILESKGLDPALGSETLASRQESTTDHMDSMLLLETLQEELKLFNETAKKQMEELQALKVKLEMKEERVRFLEQQTLCNNQVNDLTTALKEMEQLLEM
As for B2, in assay [2], the Kd came out at 1.62 µM.
